# Test results: US7674958B2 (Athenix Corporation, priority 2005, dated 2010)
# Positions count from the first letter of the chain named.
# B1: GRG23(L3P1.B20): GRG23 variant (SEQ ID NO:27), V206→I (protein)
# chain: METDRLVIPGSKSITNRALLLAAAAKGTSVLVRPLVSADTSAFKTAIQALGANVSADGDNWVVEGLGQAPHLDADIWCEDAGTVARFLPPFVAAGQGKFTVDGSEQLRRRPLRPLVDGIRHLGARVSSEQLPLTIEASGLAGGEYEIEAHQSSQFASGLIMAAPYARQGLRVRIPNPVSQPYLTMTLRMMRDFGLETSTDGATVSIPPGRYTARRYEIEPDASTASYFAAASAVSGRSFEFQGLGTDSIQGDTSFFNVLGRLGAEVHWAPNSVTISGPERLNGDIEVDMGEISDTFMTLAAIAPLADGPITITNIGHARLKESDRISAMETNLRTLGVQTDVGHDWMRIYPSTPHGGRVNCHRDHRIAMAFSILGLRVDGITLDDPQCVGKTFPGFFDYLGRLFPEKALTLPG
# modifications: grg23(L3P1.B20)
# B2: GRG23(L3P1.F18): GRG23 variant (SEQ ID NO:31), T274→I (protein)
# chain: B1 chain with I206V, T274I
# modifications: grg23(L3P1.F18)
# B3: GRG23(L3P1.B3): GRG23 variant (SEQ ID NO:29), D75→H, E217→K (protein)
# chain: B1 chain with D75H, I206V, E217K
# modifications: grg23(L3P1.B3)
# Key:
# Format in all cases: cell-based
# [1] = system: E. coli strain DH5α with pUC18-Grg23 (pAX1927); assay: Growth on glyphosate plates, grg23-expressing cells; conditions: concentration to which resistance is conferred
# Method: Isopropyl-B-D-thiogalactopyranoside (IPTG; 0.1 mM) was also added to the plates. As a control, cells containing pUC18 vector alone were transformed and streaked onto glyphosate plates.
# [2] = system: E. coli cells containing pAX1967 (GRG51); assay: Glyphosate screen on M63+ plates, GRG51-expressing cells; conditions: 2 days, 37° C.
# Method: Cells containing pAX1967 were plated onto M63+ plates containing antibiotic and either 0 mM or 20 mM glyphosate. Growth was scored after two days growth at 37° C.
# BL21*DE3 E. coli cells = assay: Selection of mutant GRG23 enzymes conferring glyphosate resistance in E. coli on 150 mM glyphosate plates; conditions: clones selected on 150 mM glyphosate; extract activity equal to or superior to GRG23
# Method: The mutagenized syngrg23 libraries were transformed into E. coli strain BL21*DE3 star (Invitrogen). Following transformation, individual colonies were plated on 1× M63 medium containing 150 mM glyphosate to select for clones that had retained enzymatic activity and growth tolerance.
# The plates were incubated for 36 hours at 37° C.
# Library plates of extracts of mutagenized syngrg23 clones were assayed for improved enzymatic activity as follows: Library clones were pinned into 96-well blocks containing LB medium and were grown to an O.D. of about 0.6. IPTG was then added (0.5 mM) and the blocks were incubated overnight at 20° C. to induce protein expression. Protein extracts were prepared from the cell pellets using POP culture reagent (Novagen), and the enzymatic activity in the crude lysates was measured. […] The DNA sequences of the clones corresponding to these extracts were determined.
molecule,measurement,setting,value
"O=C(O)CNCP(=O)(O)O [glyphosate, N-phosphonomethylglycine]",glyphosate resistance,[1],at least 100 mM
same,resistance to glyphosate,[2],20 mM
B1,Glyphosate resistance of GRG23 variants,BL21*DE3 E. coli cells,retained glyphosate resistance
B2,Glyphosate resistance of GRG23 variants,BL21*DE3 E. coli cells,retained glyphosate resistance
B3,Glyphosate resistance of GRG23 variants,BL21*DE3 E. coli cells,retained glyphosate resistance
